Assay [1] has as its target purified DJ-1 V51C (N-terminal 6×His-tagged) (human) (UniProt Q99497). In words: SEC.
Assay [2] deals with T1, purified DJ-1 WT (N-terminal 6×His-tagged) (human), Q99497.
T1 chain: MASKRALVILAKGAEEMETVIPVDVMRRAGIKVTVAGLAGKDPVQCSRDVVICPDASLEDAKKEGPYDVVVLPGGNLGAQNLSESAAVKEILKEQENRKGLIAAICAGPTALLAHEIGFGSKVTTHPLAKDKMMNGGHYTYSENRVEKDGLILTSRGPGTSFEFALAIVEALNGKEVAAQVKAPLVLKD
In words: SEC. The conditions noted are these: remark: other sources report otherwise.

In assay [1], “purified DJ-1 V51C (N-terminal 6×His-tagged) (from UniProt Q99497 1-189) (natural protein)” registered a percent of protein that is dimer of 15%.

B1: purified DJ-1 WT (N-terminal 6×His-tagged), Q99497 1-189 (natural protein)
chain: T1 chain
As to B1, in assay [2], the percent of protein that is dimer stood at 33% and the stoichiometry N (in general, the number of molecules, sites or subunits per partner or assembly) amounted to 2.

For the origin of these results see paper doi:10.1101/2020.03.26.992446.
